In a protein production outcome set (Wang et al. 2014) one finds protein production data, which are given here for 36 sequences.

This data set is described as follows: label from the status in PepcDB records.
Consider “QELKGKYMKTPTGYLMVLRHGDNVLQNLEQLARDEHIPSASFVGIGFMSEATFGFYDFGRKQFDPKTYRNVEMANMTGSIAWKEGKPSIHAHGTVTDGTFQGAGGHLLGLTVGTGSCEITVTVYPQRLDRFVDPEIQANVLGLPQQ”, for which the protein production result is on record as “not failed”.

Turning to “QEVSWTQYTQRKFQKSRQPRPSSQYNQRLFGGDMEKFIQSSGQPVPLVVESCIRFINLNGLQHEGIFRVSGAQLRVSEIRDAFERGEDPLVEGCTAHDLDSVAGVLKLYFRSLEPPLFPPDLFGELLASSELEDTAERVEHVSRLLWRLPAPVLVVLRYLFTFLNHLAQYSDENMMDPYNLAVCFGPTLLPVPAGQDPVALQGRVNQLVQTLIVQPDRVFPPLTSLPGPVYE”, the protein production result is reported as “failed”. Then “QGPVGTRIRLALGQDVEAANALMATTGDGVRIIPVLATAIEDGSASSAMLAGLGGIGTNAYHEAASHTFTDRPMNEALTTVSLTLVAADEEDRIVGVLSATAPGTLIDMAMSNGFTAEKAMALSLFVAKIHGLAVAEHARGQGIAAALLKRTWQVYQQLGYMLLYGSYEADRDLAAFYTRSGYTVHAPG”, with “failed”; and “QIDFQVLHDLRQKFPEVPEVVVSRCMLQNNNNLDACCAVLSQESTRYLYGEGDLNFSDDSGI”, with “not failed”. The same measure for “QKGRVETRRVVHIMDFQRGKNLRYQLLQLVEPFGVISNHLILNKINEAFIEMATTEDAQAAVDYYTTTPALVFGKPVRVHLSQKYKRIK”: “not failed”; for “QKRAWITAPVALREGEDLSKKNPIAKIHSDLAEERGLKITYKYTGKGITEPPFGIFVFNKDTGELNVTSILDREETPFFLLTGYALDARGNNVEKPLELRIKVLDINDNEPVFTQD”: “not failed”; for “QLAEVEVKKFKQMTEAIGPSTIRDLAVAGPEMQVKLLQSLGLKSTLITDGSTPINLFNTAFGLLGMGPEGQPLGRRVASGPSPGEGISPQSAQAPQAPGDNHVVPVLR”: “failed”. Then “QLQDGKGEKVMVEYSSPNTNKPLHLGHLRNNFLGYSISQILKANGFDVIKANLVNDRGIHICKSMIAYQKSGLGETPVSTGMKGDHLVGKYYVAFDKQLKKEVEALVAAGVEEDKAKKEAPILKEAQAMLLKWEQGDKEVYDLWKTMNGWVYDGFNASYKKIGVTFDHFYYESNTYLLGKDIVEEGLAKGVFNKRADGSVWIDLTAEGLDEKLVLRSDGTSVYITQDLGTAELKYKDFGCKRSVYVVGNEQDYHFIVLIHILKKLGKPYANGVYHMSYGMVDLPSGKMKSREGTVVDADDLVDEMIATAKERTLEQGKTDGFSEEQATHLYETLGLGALKYFLLKVDPKKRMMFNPEESIDFQ”, with “failed”; and “QNRGSLSTARSYISMGVGRVYVMKDSPNDIELTMAEGVDVGRYVDYRELAIKIADNRIDVKKNKEIINSRFKLKYKNLSSIYN”, with “failed”; and “QNRIDMAMMRGRCGLWDWNMASGRVYWSRAMYEMLGYIPQDALLSISQITAIINPNDANFFDLAQELMSGKKKHIDINVPMRHADGHYVWMRIRAEVTDEEELHLVGIAFDIS”, with “failed”. Take “QNVLDLHGLHVDEALEHLMRVLEKKTEEFKQNGGKPYLSVITGRGNHSQGGVARIKPAVIKYLISHSFRFSEIKPGCLKVMLK”: the protein production result is given as “not failed”. The same measure for “QPTAQQQLTKPAKITCANCKKPLQKGQTAYQRKGSAHLFCSTTCLSSFS”: “not failed”. Then “QRALVLTAARGRGKSAATGLSIAGLIEKLRERKEKSIRIIVTAPSIASASQVMSFAKLGLEALGEELSVKVSDTGHIKSLRGDYFKLEYVPPDAAIEDEGELLIIDEAAALGINYIDLALRAWKKVALVTTVHGYEGSNKAFLRYLRRLIESKRIRVKWVNMEQPLRYAKGDPIEKWLYDALLLD”, with “failed”; and “QRSYERDFPHHDRICIVKTHGTRQSQEGDKPEELDFSQVSGGVAPAIQEEIPGVELATRTTLYGTSKMILEDNKTYETKTLLAEPAFLDMFGVELIAGVRDSALRDNMTCLISESLARKMGGDVLGKRLRPAESKSDRAITIGGVFEDLPHNSSIQADMLLPITWMPAESLNNWIGNDRYIAYVRLRPGVSPESLDEALLEMQKRHQDMEVFRKAGVELHYSLTPFNRLRLEDPTLVNMLRIQQ”, with “not failed”. As for “QYHDHHKDQYQMDAAHVPNKTPLYITDILSLRGKKDSGPARDSIRDSIDRIEFTDFQLHELTGRWLSENMPEGFKSDRFRFLARTITASEEAPVEGSDGEIRIKPNLYILVWEPSFYEELLTRDYFFLFPPEILKQHTLVFQLYSFFRSRMVRRHTDCMLLSELNQKLARNIEWRRFSMDLIRELKRLSDGKGTDDLFVVNLWGYHLTIETMIENDKVMDYQIDIKCDVEEVLRYSRARTTNAGKRNMAPTLPNPLRNEMVTRQQLEALSGIIDGEFEPIQRKTPSPRGNLGRRVKQRKHLVEINADEITITLSKYTSPEALERSITALSAMTGHSYASIKEECSEYIEKLDWLRVGDEPIPYETLSKTVELFNTQNEVKHLTIERLIAGLAVRRKVCRQVFDGHMDEMVFRALDEMAI”, the protein production result was “failed”. As for “RAGHIEVAEVEGMSFPVKLDTGADVSSINAKDIKLFQKDGKDMVSFTYENDLGMQKAFTREVVDVMKITAKKGEKANVRPVVEMHVKLGELEKKIRVNLQDRGRFHYSMILGKNFLKHGALVASETNYIVTKK”, the protein production result is “not failed”. The same measure for “RDITARVQAEENKRRLAEVVEANPDPVLFIQPGGAVTYLNPAARRTLGLGDGQAMPPLAAILSAAVLDSLQREGWDRAEHSGRWNIEARLQPPAGGASVPVSLMLLAHRAASGERFYSLVAHD”: “failed”; for “RDLDAVLQAIVQRARSLLGTDVAYLTLHDEAEGDTYMRVTEGSVAARFQQLRLGMGEGLGGLVAQTARPYVTPDYFNDERFQHTRVIDGGVRDEGLVAILGVPLMIGPQVIGVLFAADRRARVFEREQIALLGSFAALAAAAIDTANLLTETRSALDRLARANEIIRDRSGVIERASDVHDRLAELVLRGG”: “failed”. Then “RDSLFNDPNAPVLGNPEGDVTVVEFFDYNCPYCRRAMAEVQGLVDADPNVRLVYREWPILGEGSDFAARAALAARQQGKYEAFHWALMGMSGKANETGVLRIAREVGLDTEQLQRDMEAPEVTAHIAQSMALAQKLGFNGTPSFVVEDALVPGFVEQSQLQDAVDRARKAA”, with “not failed”; and “RDSLFNDPNAPVLGNPEGDVTVVEFFDYNCPYCRRAMAEVQGLVDADPNVRLVYREWPILGEGSDFAARAALAARQQGKYEAFHWALMGMSGKANETGVLRIAREVGLDTEQLQRDMEAPEVTAHIAQSMALAQKLGFNGTPSFVVEDALVPGFVEQSQLQDAVDRARKAAAK”, with “not failed”; and “REEDPHEGKIWFHGKISKQEAYNLLMTVGQVCSFLVRPSDNTPGDYSLYFRTNENIQRFKICPTPNNQFMMGGRYYNSIGDIIDHYRKEQIVEGYYLKEPVPMQDQ”, with “not failed”.

As to “REIADNTYIVLGTMTLNDFNEYFETDLESDNVDTIAGFYLTGVGTIPSQEEKEHFEVESNGKHLELINDKVKDGRVTKLKILVSEVEEKEDEKD”, the protein production result is given as “not failed”. As for “REKLFLQPVKPTDSMRMEVSSPKLAIGVRGKREVSEADCYRHHILLKLLFAMMFGWTSDRFQKCYESGKIDASLSLEVEITSRFHFVMLTMDTKEPVALSHQFRKAIRNFTKDLDITEEHLDIIKREMFGEFFSSMNSLEFIATQYDAFENGEIIFDLPKILQEITLEDVLDAGHHLIDDGDIVDFTIFP”, the protein production entry is reported as “failed”. Then “RGLRRGTLRIGSFGPTSSMRLLPALLARYRQQYPGIEVHIDEGPDEQVLQWLLERRVDIAFAVLPDPRFVCCPLVEDQMVAVLPAGHRLADRPRVTLAELCGEPFALSGAGSAELVMRLFQAARLQPNIRYRCGQLLSTLDTVARG”, with “failed”; and “RGRYRQYNSEILEEAISVVMSGKMSVSKAQSIYGIPHSTLEYKVKERLGTLKNPPKKKMKLMR”, with “not failed”. Then “RKKEDKYDFRALGLAIKEARKKQGLTREQVGAMIEIDPRYLTNIENKGQHPSLQVLYDLVSLLNVSVDEFFLPASSQVKSTKRRQLENKIDNF”, with “failed”. As for “RLEDLGAASAARLLDAAEERLGRPCGRMERYGRVEREVVAAAEGAELLIVARDGDRARLGPHSLGPASRFVVDHAPCPVLLVWPAPAPGLGTIPPPPHP”, the protein production result is “not failed”. The same measure for “RNGGTIGGADIIAKLLEDKLGLQLNQALLGIDLFVMIVSLTYISLPQMMYALIASFMYGQIVRLVQQGGYSARGIFIVSEQAEKIARFIMDELGRGVTYLTGEGAYSGRRKKVIYVALGRRDIRELKAFLTQVDPNAFITYFDVNEVNSPEFLTIKSKYHKKRK”: “failed”.

In the case of “RPAVFPRMGVLPARVALLGQGQHWGVDFCLNVFRANFAEDREIQSEDVVRDLLRAQDLDADALIAQARQESTKEALRKQVDRARALGIFGAPTFMVDGEMFWGNDRLEDALA”, the protein production result is “failed”. As for “RPDVSRQSQFHTMALVNLSAKMIESCYFLRHFEQQWLLRFHLQAESVGLFSEGLLAFDGDGRICAANQSALNLLGTVRGGVLGKPLECFFACSHDEMFSRATPGG”, the protein production entry is recorded as “failed”. The same measure for “RQAEEGPPPLPRQISDRSVGHYCSMNLTEHNGPKAQIFLNGKPDQPVWFSTIKQMFGYTKLPEEPKGIRVIYVTDMGNVTDWTNPNADTEWMDAKKAFYVIDSGFIGGMGAEDALPFGNKEQAEKFAKDKGGKVVGFDDMPDTYIFK”: “not failed”; for “RQKFINDVLHLLYRPLDWNQSIAKVMELLGRFTQADRSYIFENSPDDSYATNTFEWCQEGIAPQIHLLQHFEYSLMPSWKPLIVEKKMICASDISTLPLDLSETLAPQGIKSILAVSIFAQGRLYGYLGLDSCRKKREWSEEEIELLRSISTIIAGAIERRGWERSEKEQ”: “failed”. The same measure for “RRLVTYVLVHGTHSAGAFWTPIARELGLRGHRVVMVDQPRHGAEAFVAESYQRQDLAAMAVEPSPLKGLGLDDYEARVAGIVRRAARNGPVVLVGHSLGGVSVSRVGEAVPHLLHHICYMAAFCPSRVLPTADACTAAPENANAVSPVELTVGDPDRLGVLRLNFRTGVSGELALLKEMICADYPDADFRRILAGMQTDEPVAAYAGRAVGRAGRWGRIPRTYLRFGRDRTIATALQDRVIAEADAATPGNGFRVHDFPEASHVGPLDPTPVADVLDRLA”: “failed”; for “RSAHLRVRQLPHAPEHPVATLSTVERRAINLTWTKPFDGNSPLIRYILEMSENNAPWTVLLASVDPKATSVTVKGLVPARSYQFRLCAVNDVGKGQFSKDTERVSLPE”: “not failed”. The same measure for “RSRPSPYACHVEAWAADGRQRVRMANPGHATLVLHVYDCLRLAQGPRRYTIEPGRQWEDSWPDAGADLACDLWILGPDGFHRHIRR”: “failed”; for “RSTIGAGQKVNVEFVSANPTGPMHVGHVRGAVVGDALARLLAYAGWNVTREYYINDGGAQVDVLARSAFERYREAHGLEPEIREGLYPGDYLIPVGEALKAKYGDSLLDKGEQHWLTEVREFATEMMMQMIREDLAALGVEMDVYSSEKALYGTGKIEAALDRLKEMDLIYEGVLEPPKGKTPEDWEPREQTLFRSTAHGDDVDRPVKKSDGSWTYFAPDIAYHYDKVTRGFDQLIDIFGADHGGYVKRMKAAVAALSAGRVPLDIKLIQLVKLWKNGEPFKMSKRAGTYVTLRDVVEQVGTDVTRFVMLTRKNDATLDFDFDKVLEQSKENPVFYVQYANARINSVLRKAREQGMDVSDA”: “failed”.
